Assay [1] addresses T1, human glucose-dependent insulinotropic polypeptide receptor (hGIP-R) (human, UniProt P48546 22-466).
T1 sequence (looked up): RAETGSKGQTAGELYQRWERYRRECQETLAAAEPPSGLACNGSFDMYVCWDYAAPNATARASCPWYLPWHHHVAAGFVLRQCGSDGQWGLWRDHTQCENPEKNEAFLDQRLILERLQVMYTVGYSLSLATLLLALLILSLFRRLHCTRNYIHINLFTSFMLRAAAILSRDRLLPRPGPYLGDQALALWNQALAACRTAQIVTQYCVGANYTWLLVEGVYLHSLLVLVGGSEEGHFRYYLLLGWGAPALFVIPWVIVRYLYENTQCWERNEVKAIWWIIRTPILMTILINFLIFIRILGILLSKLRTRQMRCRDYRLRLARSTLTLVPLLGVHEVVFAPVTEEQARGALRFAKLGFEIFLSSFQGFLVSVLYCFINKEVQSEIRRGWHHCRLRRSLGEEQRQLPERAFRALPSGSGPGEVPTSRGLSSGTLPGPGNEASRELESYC
Put plainly: cell-based or functional assay.

The target of assay [2] is T2, human glucagon-like peptide 1 receptor (hGLP-1-R) (human, UniProt P43220 24-463).
T2 construct: whole, on cells; The cAMP assay uses whole hGLP-1-R-293HEK cells (pcDNA3.1/Neo); also called GLP-1 receptor
Put plainly: SPA competition, I-125 GLP-1 displacement, hGLP-1-R 293HEK membranes. How it is done:
The binding buffer contains 25 mM HEPES, pH 7.4, 2.5 mM CaCl₂, 1 mM MgCl₂, 0.1% fatty acid free BSA, 0.003% Tween20, and Roche Complete™ Inhibitors without EDTA. […] The peptide analog is dissolved in PBS and serially diluted in binding buffer. […] Plates are read with a PerkinElmer Life and Analytical Sciences Trilux MicroBeta® scintillation counter after 12 hours of settling time at room temperature.
The IC₅₀ concentration is converted to Ki using the Cheng-Prusoff equation.

Assay [3] concerns the target T2, human glucagon-like peptide 1 receptor …. Put plainly: SPA competition binding assay.
In assay [4] the target is T1, human glucose-dependent insulinotropic …. Put plainly: SPA competition binding assay.
In assay [5] the target is T3, human glucagon receptor (hGlucR) (human, UniProt P47871 26-477).
T3 construct: whole, on cells
T3 sequence (P47871 26-477): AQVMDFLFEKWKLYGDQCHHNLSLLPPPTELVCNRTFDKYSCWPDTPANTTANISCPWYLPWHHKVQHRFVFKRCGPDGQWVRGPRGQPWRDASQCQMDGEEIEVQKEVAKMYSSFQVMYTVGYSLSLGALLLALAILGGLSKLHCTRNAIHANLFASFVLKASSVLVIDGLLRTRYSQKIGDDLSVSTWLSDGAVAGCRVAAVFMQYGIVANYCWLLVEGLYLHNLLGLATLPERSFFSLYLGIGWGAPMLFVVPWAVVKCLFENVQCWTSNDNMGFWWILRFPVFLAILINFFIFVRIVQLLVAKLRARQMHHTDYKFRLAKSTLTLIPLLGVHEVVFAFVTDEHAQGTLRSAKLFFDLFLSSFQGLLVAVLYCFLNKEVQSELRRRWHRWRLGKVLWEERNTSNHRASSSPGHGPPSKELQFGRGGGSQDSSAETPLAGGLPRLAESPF
Put plainly: ratio of Ki values from SPA competition binding assays (Gluc-R against GIP-R and GLP-1-R).

The target in assay [6] is T1, human glucose-dependent insulinotropic …. Put plainly: SPA competition, [125I]GIP displacement, hGIP-R CHO-S membranes. On the procedure: The peptides analogs are serially diluted into binding buffer. […] Then, 90 μL membranes (4 μg/well), 50 μL [¹²⁵I] […] Plates are read with a MicroBeta® scintillation counter after 12 hours of settling time at room temperature.

Assay [7] has as its target T2, human glucagon-like peptide 1 receptor …. Put plainly: cell-based or functional assay.

This is an account of results in US20110237503A1 (Eli Lilly, published 2011).

Where no end group is shown, it is not given here. Side-chain parts run from the residue outwards. [ ]: non-standard residue; d: D form. maleimide = maleimide end of mPEG-20 kDa maleimide, which attaches the 20 kDa PEG to the Cys thiol; 1Nal = N[C@@H](Cc1cccc2ccccc12)C(=O)O; Aib = CC(C)(N)C(=O)O

With Y[Aib]EGTFTSDYSI[Aib]LDKIAQRA[1Nal]VQWLIA[Aib]KGKKQEWKHQITQC([maleimide-mPEG 20 kDa])C([maleimide-mPEG 20 kDa])-NH2 (also called Ex 4) [Aib2, Aib13, Nal22, Aib29, Cys43(PEG20K), Cys44(PEG20K)-GIP (Example 4, PEGylated with mPEG-MAL)], the “EC50 (relative), intracellular cAMP in hGIP-R-CHO-S cells, HTRF” value in assay [1] is 277 pM. Also, the Ki (usually the equilibrium dissociation constant of an inhibitor or competing ligand from its target) in assay [2] was 5270 pM; in assay [3], below 100000 pM; in assay [4], below 100000 pM; in assay [6], 8230 pM. For the same molecule, the “selectivity ratio versus Gluc-R” value in assay [5] was at least 100 times. The “EC50 (relative), intracellular cAMP in hGLP-1-R-293HEK cells, HTRF” value in assay [7] was 844 pM.
Turning to Y[Aib]EGTFTSDYSI[Aib]LDKIAQRA[1Nal]VQWLIA[Aib]KGKKQEWKHQITQ (not fully specified (C-terminus), Not PEGylated) [Example 1 (Aib2, Aib13, Nal22, Aib29 GIP analog, 42 residues)], the “EC50 (relative), intracellular cAMP in hGIP-R-CHO-S cells, HTRF” value in assay [1] was 5 pM. Besides, the Ki was 96 pM in assay [2], below 100000 pM in assay [3], below 100000 pM in assay [4] and 44 pM in assay [6]. Besides, the “selectivity ratio versus Gluc-R” value in assay [5] is at least 100 times. Also, the “EC50 (relative), intracellular cAMP in hGLP-1-R-293HEK cells, HTRF” value in assay [7] is 36 pM.
As to Y[Aib]EGTFTSDYSI[Aib]LDKIAQRA[1Nal]VQWLIA[Aib]KGKKQEWKHQITQC([acetamide-mPEG 20 kDa])C([acetamide-mPEG 20 kDa])-NH2, in assay [1], the “EC50 (relative), intracellular cAMP in hGIP-R-CHO-S cells, HTRF” value came to 207 pM. Besides, the Ki in assay [2] was 6200 pM; in assay [3] it was below 100000 pM; in assay [4], below 100000 pM; in assay [6] it was 9220 pM. Also, the “selectivity ratio versus Gluc-R” value in assay [5] was at least 100 times. For the same molecule, in assay [7], the “EC50 (relative), intracellular cAMP in hGLP-1-R-293HEK cells, HTRF” value came out at 959 pM.
Take Y[Aib]EGTFTSDYSI[Aib]LDKIAQRAFVQWLIA[Aib]KGKKQEWKHQITQC([maleimide-mPEG 20 kDa])C([maleimide-mPEG 20 kDa])-NH2 [Aib2, Aib13, Aib29, Cys43(PEG20K), Cys44(PEG20K)-GIP (Example 3, PEGylated with mPEG-MAL)]: in assay [1], the “EC50 (relative), intracellular cAMP in hGIP-R-CHO-S cells, HTRF” value came to 244 pM. The Ki in assay [2] was 9000 pM; in assay [3] it was below 100000 pM; in assay [4] it was below 100000 pM; in assay [6] it was 9790 pM. The “selectivity ratio versus Gluc-R” value in assay [5] was at least 100 times. Moreover, the “EC50 (relative), intracellular cAMP in hGLP-1-R-293HEK cells, HTRF” value in assay [7] amounted to 1110 pM.
As to Y[Aib]EGTFTSDYSI[Aib]LDKIAQRAFVQWLIA[Aib]KGKKQEWKHQITQ (not fully specified (C-terminus), Not PEGylated) [Example 2 (Aib2, Aib13, Aib29 GIP analog, 42 residues)], the “EC50 (relative), intracellular cAMP in hGIP-R-CHO-S cells, HTRF” value in assay [1] came out at 23 pM. Further, the Ki in assay [2] was 59 pM; in assay [3] it was below 100000 pM; in assay [4], below 100000 pM; in assay [6] it was 23 pM. In addition, the “selectivity ratio versus Gluc-R” value in assay [5] is at least 100 times. Further, the “EC50 (relative), intracellular cAMP in hGLP-1-R-293HEK cells, HTRF” value in assay [7] came out at 45 pM.
